In assay [1] the target is B7-1 (Homo sapiens) (UniProt P33681). The following applies: cited from earlier work.
The target of assay [2] is B7-1 (Mus musculus) (UniProt Q00609). As to conditions: cited from earlier work.
For assay [3], the target named is mB7-1 mIgG2a (UniProt Q00609). Kind of assay: FACS titration. As to conditions: cells expressing PD-L1 titrated with recombinant B7-1 Fc-fusion; anti-mouse Alexa 488 secondary; single-site binding model.
For assay [4], the target named is mPD-1 mIgG2a (UniProt Q02242). As to the kind of experiment: FACS titration. As to conditions: cells expressing PD-L1 titrated with recombinant PD-1 Fc-fusion; anti-mouse Alexa 488 secondary; single-site binding model.

Among the data in paper PMC7272049 are Kd and other: Bmax values, retold here.

Chain of B7-1 (P33681 35-242): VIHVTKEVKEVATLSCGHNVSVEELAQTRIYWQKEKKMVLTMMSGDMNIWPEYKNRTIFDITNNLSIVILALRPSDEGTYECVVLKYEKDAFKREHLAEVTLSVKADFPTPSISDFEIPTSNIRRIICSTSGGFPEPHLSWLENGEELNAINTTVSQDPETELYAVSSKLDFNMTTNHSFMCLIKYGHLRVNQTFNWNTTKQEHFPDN
Chain of PD-L1 (Q9EP73 19-239): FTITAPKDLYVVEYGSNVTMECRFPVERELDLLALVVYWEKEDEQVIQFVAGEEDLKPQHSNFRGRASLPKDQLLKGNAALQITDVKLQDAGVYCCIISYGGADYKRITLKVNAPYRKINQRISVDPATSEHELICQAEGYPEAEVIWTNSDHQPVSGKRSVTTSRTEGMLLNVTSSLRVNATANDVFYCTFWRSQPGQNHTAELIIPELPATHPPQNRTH

What is called Kd is the concentration at which binding is half-saturated. Consider B7-1 (from UniProt P33681), for which the Kd in assay [1] is 35 µM. With PD-L1 (from UniProt Q9EP73), the Kd in assay [2] is 1.6 µM. On to “WT mPD-L1 mCherry (from UniProt Q9EP73) D28R”, for which the other: Bmax came to 73.1 in assay [3] and 93.4 in assay [4].
